Laboratory results from paper PMC9482650, “Quantitative fragmentomics allow affinity mapping of interactomes” (Nature Communications, 2022).

Each binder was assayed against MAST1, Q9Y2H9 (assay: holdup assay). Conditions: plain residues with an end cap or a label only (N-terminal biotin on a linker: ado-ado).
Set-up: key: below the threshold = too weak to quantify, mostly under pKd 3.1 to 4

Sequence of MAST1, Q9Y2H9 (Q9Y2H9 962-1065): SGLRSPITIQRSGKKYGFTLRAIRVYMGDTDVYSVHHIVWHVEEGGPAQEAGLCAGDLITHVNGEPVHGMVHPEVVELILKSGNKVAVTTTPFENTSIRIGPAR

Binder | pKd
PEKVSNTTVV [IGSF5, Q9NSI5] | 4.53
EAVTVESTSL [SLC22A11, Q9NSA0] | 5.07

What follows are binders tested against T1, PDZD2_2, O15018 (assay: holdup assay). Conditions: plain residues with an end cap or a label only (N-terminal biotin on a linker: ado-ado).
T1 sequence (O15018 329-429, limits assumed, looked up): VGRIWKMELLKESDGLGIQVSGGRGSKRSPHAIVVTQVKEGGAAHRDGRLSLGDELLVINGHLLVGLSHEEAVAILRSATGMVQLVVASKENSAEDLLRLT
Set-up: key: below the threshold = too weak to quantify, mostly under pKd 3.1 to 4

Binder | pKd
PEKVSNTTVV [IGSF5, Q9NSI5] | 4.06
EAVTVESTSL [SLC22A11, Q9NSA0] | 4.4

The binders below were run against GOPC, Q9HD26 (assay: holdup assay). Conditions: plain residues with an end cap or a label only (N-terminal biotin on a linker: ado-ado).
Set-up: key: below the threshold = too weak to quantify, mostly under pKd 3.1 to 4

Binder | pKd
PEKVSNTTVV [IGSF5, Q9NSI5] | 3.61
EAVTVESTSL [SLC22A11, Q9NSA0] | 4.18

Each binder was assayed against GRIP2_3, Q9C0E4 (assay: holdup assay). Conditions: plain residues with an end cap or a label only (N-terminal biotin on a linker: ado-ado).
Set-up: key: below the threshold = too weak to quantify, mostly under pKd 3.1 to 4

Sequence of GRIP2_3, Q9C0E4 (Q9C0E4 238-339): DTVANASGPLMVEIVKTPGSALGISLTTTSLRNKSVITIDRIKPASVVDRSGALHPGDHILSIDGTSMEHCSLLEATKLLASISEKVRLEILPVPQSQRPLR

Binder | pKd
PEKVSNTTVV [IGSF5, Q9NSI5] | below the threshold
EAVTVESTSL [SLC22A11, Q9NSA0] | below the threshold

What follows are binders tested against LNX1_3, Q8TBB1 (assay: holdup assay). Conditions: plain residues with an end cap or a label only (N-terminal biotin on a linker: ado-ado).
Set-up: key: below the threshold = too weak to quantify, mostly under pKd 3.1 to 4

Sequence of LNX1_3, Q8TBB1 (Q8TBB1 500-596): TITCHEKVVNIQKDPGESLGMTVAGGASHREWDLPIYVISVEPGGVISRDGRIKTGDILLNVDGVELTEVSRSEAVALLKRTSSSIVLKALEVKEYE

Binder | pKd
PEKVSNTTVV [IGSF5, Q9NSI5] | below the threshold
EAVTVESTSL [SLC22A11, Q9NSA0] | below the threshold

Each binder was assayed against NHERF4_2, Q86UT5 (assay: holdup assay). Conditions: plain residues with an end cap or a label only (N-terminal biotin on a linker: ado-ado).
Set-up: key: below the threshold = too weak to quantify, mostly under pKd 3.1 to 4

Sequence of NHERF4_2, Q86UT5 (Q86UT5 220-308): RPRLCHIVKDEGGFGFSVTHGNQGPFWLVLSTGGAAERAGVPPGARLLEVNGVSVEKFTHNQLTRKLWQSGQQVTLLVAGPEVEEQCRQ

Binder | pKd
PEKVSNTTVV [IGSF5, Q9NSI5] | below the threshold
EAVTVESTSL [SLC22A11, Q9NSA0] | below the threshold

Each binder was assayed against GRIP2_4, Q9C0E4 (assay: holdup assay). Conditions: plain residues with an end cap or a label only (N-terminal biotin on a linker: ado-ado).
Set-up: key: below the threshold = too weak to quantify, mostly under pKd 3.1 to 4

Sequence of GRIP2_4, Q9C0E4 (Q9C0E4 446-548): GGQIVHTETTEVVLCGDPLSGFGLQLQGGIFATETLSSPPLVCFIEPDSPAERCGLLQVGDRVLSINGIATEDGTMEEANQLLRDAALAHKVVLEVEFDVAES

Binder | pKd
PEKVSNTTVV [IGSF5, Q9NSI5] | below the threshold
EAVTVESTSL [SLC22A11, Q9NSA0] | below the threshold

The binders below were run against T2, SNTA1, Q13424 (assay: holdup assay). Conditions: plain residues with an end cap or a label only (N-terminal biotin on a linker: ado-ado).
T2 sequence (Q13424 82-180, limits assumed, looked up): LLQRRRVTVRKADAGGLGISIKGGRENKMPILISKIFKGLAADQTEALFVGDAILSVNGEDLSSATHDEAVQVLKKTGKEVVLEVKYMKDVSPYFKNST
Set-up: key: below the threshold = too weak to quantify, mostly under pKd 3.1 to 4

Binder | pKd
PEKVSNTTVV [IGSF5, Q9NSI5] | 3.93
EAVTVESTSL [SLC22A11, Q9NSA0] | 3.65

What follows are binders tested against DLG2_2, Q15700 (assay: holdup assay). Conditions: plain residues with an end cap or a label only (N-terminal biotin on a linker: ado-ado).
Set-up: key: below the threshold = too weak to quantify, mostly under pKd 3.1 to 4

Sequence of DLG2_2, Q15700 (Q15700 189-283): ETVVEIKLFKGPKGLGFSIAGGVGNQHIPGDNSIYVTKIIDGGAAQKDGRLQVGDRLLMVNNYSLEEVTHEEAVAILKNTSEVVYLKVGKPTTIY

Binder | pKd
PEKVSNTTVV [IGSF5, Q9NSI5] | 4.44
EAVTVESTSL [SLC22A11, Q9NSA0] | below the threshold

These binders were tested against MAGI2_4, Q86UL8 (assay: holdup assay). Conditions: plain residues with an end cap or a label only (N-terminal biotin on a linker: ado-ado).
Set-up: key: below the threshold = too weak to quantify, mostly under pKd 3.1 to 4

Sequence of MAGI2_4, Q86UL8 (Q86UL8 772-865): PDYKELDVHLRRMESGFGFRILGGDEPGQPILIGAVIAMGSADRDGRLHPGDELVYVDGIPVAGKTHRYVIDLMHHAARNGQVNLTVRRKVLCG

Binder | pKd
PEKVSNTTVV [IGSF5, Q9NSI5] | 3.7
EAVTVESTSL [SLC22A11, Q9NSA0] | below the threshold

Each binder was assayed against LDB3, O75112 (assay: holdup assay). Conditions: plain residues with an end cap or a label only (N-terminal biotin on a linker: ado-ado).
Set-up: key: below the threshold = too weak to quantify, mostly under pKd 3.1 to 4

Sequence of LDB3, O75112 (O75112 1-94): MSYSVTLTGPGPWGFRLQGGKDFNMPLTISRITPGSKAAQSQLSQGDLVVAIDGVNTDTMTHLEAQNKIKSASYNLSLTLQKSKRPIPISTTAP

Binder | pKd
PEKVSNTTVV [IGSF5, Q9NSI5] | below the threshold
EAVTVESTSL [SLC22A11, Q9NSA0] | below the threshold

What follows are binders tested against PTPN3, P26045 (assay: holdup assay). Conditions: plain residues with an end cap or a label only (N-terminal biotin on a linker: ado-ado).
Set-up: key: below the threshold = too weak to quantify, mostly under pKd 3.1 to 4

Sequence of PTPN3, P26045 (P26045 505-587): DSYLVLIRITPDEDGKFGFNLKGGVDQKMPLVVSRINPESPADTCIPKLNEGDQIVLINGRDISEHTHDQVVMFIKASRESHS

Binder | pKd
PEKVSNTTVV [IGSF5, Q9NSI5] | below the threshold
EAVTVESTSL [SLC22A11, Q9NSA0] | 4.62

Each binder was assayed against T3, TJP3_3, O95049 (assay: holdup assay). Conditions: plain residues with an end cap or a label only (N-terminal biotin on a linker: ado-ado).
T3 sequence (O95049 375-456, limits assumed, looked up): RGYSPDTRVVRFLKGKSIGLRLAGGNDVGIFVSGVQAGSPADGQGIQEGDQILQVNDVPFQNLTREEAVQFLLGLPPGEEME
Set-up: key: below the threshold = too weak to quantify, mostly under pKd 3.1 to 4

Binder | pKd
PEKVSNTTVV [IGSF5, Q9NSI5] | below the threshold
EAVTVESTSL [SLC22A11, Q9NSA0] | below the threshold

Each binder was assayed against T4, HTRA4, P83105 (assay: holdup assay). Conditions: plain residues with an end cap or a label only (N-terminal biotin on a linker: ado-ado).
T4 sequence (P83105 378-476, limits assumed, looked up): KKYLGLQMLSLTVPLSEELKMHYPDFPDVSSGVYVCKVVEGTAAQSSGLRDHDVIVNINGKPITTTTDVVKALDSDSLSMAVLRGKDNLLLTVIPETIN
Set-up: key: below the threshold = too weak to quantify, mostly under pKd 3.1 to 4

Binder | pKd
PEKVSNTTVV [IGSF5, Q9NSI5] | below the threshold
EAVTVESTSL [SLC22A11, Q9NSA0] | below the threshold

These binders were tested against FRMPD2_1, Q68DX3 (assay: holdup assay). Conditions: plain residues with an end cap or a label only (N-terminal biotin on a linker: ado-ado).
Set-up: key: below the threshold = too weak to quantify, mostly under pKd 3.1 to 4

Sequence of FRMPD2_1, Q68DX3 (Q68DX3 770-861): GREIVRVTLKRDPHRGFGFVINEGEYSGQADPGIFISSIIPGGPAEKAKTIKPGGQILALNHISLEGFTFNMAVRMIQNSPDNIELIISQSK

Binder | pKd
PEKVSNTTVV [IGSF5, Q9NSI5] | below the threshold
EAVTVESTSL [SLC22A11, Q9NSA0] | below the threshold

These binders were tested against SCRIB_2, Q14160 (assay: holdup assay). Conditions: plain residues with an end cap or a label only (N-terminal biotin on a linker: ado-ado).
Set-up: key: below the threshold = too weak to quantify, mostly under pKd 3.1 to 4

Sequence of SCRIB_2, Q14160 (Q14160 857-960): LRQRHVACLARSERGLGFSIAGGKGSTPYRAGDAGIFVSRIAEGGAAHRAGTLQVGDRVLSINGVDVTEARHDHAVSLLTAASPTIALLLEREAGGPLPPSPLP

Binder | pKd
PEKVSNTTVV [IGSF5, Q9NSI5] | below the threshold
EAVTVESTSL [SLC22A11, Q9NSA0] | 3.79

The binders below were run against T5, GRIP1_2, Q9Y3R0 (assay: holdup assay). Conditions: plain residues with an end cap or a label only (N-terminal biotin on a linker: ado-ado).
T5 sequence (Q9Y3R0 145-248, limits assumed, looked up): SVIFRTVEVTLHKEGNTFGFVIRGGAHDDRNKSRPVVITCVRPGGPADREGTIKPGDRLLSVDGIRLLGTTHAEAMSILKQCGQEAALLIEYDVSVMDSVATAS
Set-up: key: below the threshold = too weak to quantify, mostly under pKd 3.1 to 4

Binder | pKd
PEKVSNTTVV [IGSF5, Q9NSI5] | below the threshold
EAVTVESTSL [SLC22A11, Q9NSA0] | below the threshold

Each binder was assayed against T6, NHERF3_4, Q5T2W1 (assay: holdup assay). Conditions: plain residues with an end cap or a label only (N-terminal biotin on a linker: ado-ado).
T6 sequence (Q5T2W1 373-468, limits assumed, looked up): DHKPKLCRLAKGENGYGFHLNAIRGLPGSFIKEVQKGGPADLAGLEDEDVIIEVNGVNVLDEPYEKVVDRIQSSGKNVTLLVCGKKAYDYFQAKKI
Set-up: key: below the threshold = too weak to quantify, mostly under pKd 3.1 to 4

Binder | pKd
PEKVSNTTVV [IGSF5, Q9NSI5] | below the threshold
EAVTVESTSL [SLC22A11, Q9NSA0] | 4.92

These binders were tested against T7, SNTG1, Q9NSN8 (assay: holdup assay). Conditions: plain residues with an end cap or a label only (N-terminal biotin on a linker: ado-ado).
T7 sequence (Q9NSN8 52-150, limits assumed, looked up): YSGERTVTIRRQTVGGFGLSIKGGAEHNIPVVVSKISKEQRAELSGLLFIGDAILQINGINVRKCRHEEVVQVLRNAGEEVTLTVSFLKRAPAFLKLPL
Set-up: key: below the threshold = too weak to quantify, mostly under pKd 3.1 to 4

Binder | pKd
PEKVSNTTVV [IGSF5, Q9NSI5] | below the threshold
EAVTVESTSL [SLC22A11, Q9NSA0] | 3.5

These binders were tested against T8, SIPA1L2, Q9P2F8 (assay: holdup assay). Conditions: plain residues with an end cap or a label only (N-terminal biotin on a linker: ado-ado).
T8 sequence (Q9P2F8 945-1036, limits assumed, looked up): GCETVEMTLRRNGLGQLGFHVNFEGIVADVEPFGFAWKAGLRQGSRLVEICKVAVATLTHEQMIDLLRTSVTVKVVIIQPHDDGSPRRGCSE
Set-up: key: below the threshold = too weak to quantify, mostly under pKd 3.1 to 4

Binder | pKd
PEKVSNTTVV [IGSF5, Q9NSI5] | below the threshold
EAVTVESTSL [SLC22A11, Q9NSA0] | below the threshold

The binders below were run against PICK1, Q9NRD5 (assay: holdup assay). Conditions: plain residues with an end cap or a label only (N-terminal biotin on a linker: ado-ado).
Set-up: key: below the threshold = too weak to quantify, mostly under pKd 3.1 to 4

Sequence of PICK1, Q9NRD5 (Q9NRD5 17-115): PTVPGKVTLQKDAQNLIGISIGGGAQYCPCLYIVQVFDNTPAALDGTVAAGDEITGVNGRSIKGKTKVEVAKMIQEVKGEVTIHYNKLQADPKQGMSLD

Binder | pKd
PEKVSNTTVV [IGSF5, Q9NSI5] | 4.15
EAVTVESTSL [SLC22A11, Q9NSA0] | below the threshold

These binders were tested against HTRA1, Q92743 (assay: holdup assay). Conditions: plain residues with an end cap or a label only (N-terminal biotin on a linker: ado-ado).
Set-up: key: below the threshold = too weak to quantify, mostly under pKd 3.1 to 4

Sequence of HTRA1, Q92743 (Q92743 360-477): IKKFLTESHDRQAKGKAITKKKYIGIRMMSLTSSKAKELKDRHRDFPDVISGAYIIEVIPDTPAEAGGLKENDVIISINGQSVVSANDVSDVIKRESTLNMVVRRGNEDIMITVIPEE

Binder | pKd
PEKVSNTTVV [IGSF5, Q9NSI5] | 4.49
EAVTVESTSL [SLC22A11, Q9NSA0] | 3.92

The binders below were run against MAGI2_5, Q86UL8 (assay: holdup assay). Conditions: plain residues with an end cap or a label only (N-terminal biotin on a linker: ado-ado).
Set-up: key: below the threshold = too weak to quantify, mostly under pKd 3.1 to 4

Sequence of MAGI2_5, Q86UL8 (Q86UL8 915-1017): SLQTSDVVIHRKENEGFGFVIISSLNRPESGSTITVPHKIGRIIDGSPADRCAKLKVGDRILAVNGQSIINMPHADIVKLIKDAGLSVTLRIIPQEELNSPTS

Binder | pKd
PEKVSNTTVV [IGSF5, Q9NSI5] | 3.64
EAVTVESTSL [SLC22A11, Q9NSA0] | 4.45

Each binder was assayed against CASK, O14936 (assay: holdup assay). Conditions: plain residues with an end cap or a label only (N-terminal biotin on a linker: ado-ado).
Set-up: key: below the threshold = too weak to quantify, mostly under pKd 3.1 to 4

Sequence of CASK, O14936 (O14936 487-570): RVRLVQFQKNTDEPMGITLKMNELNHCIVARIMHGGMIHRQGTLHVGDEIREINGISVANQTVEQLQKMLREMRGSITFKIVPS

Binder | pKd
PEKVSNTTVV [IGSF5, Q9NSI5] | below the threshold
EAVTVESTSL [SLC22A11, Q9NSA0] | below the threshold

What follows are binders tested against Inadl_5, Q8NI35 (assay: holdup assay). Conditions: plain residues with an end cap or a label only (N-terminal biotin on a linker: ado-ado).
Set-up: key: below the threshold = too weak to quantify, mostly under pKd 3.1 to 4

Sequence of Inadl_5, Q8NI35 (Q8NI35 673-780): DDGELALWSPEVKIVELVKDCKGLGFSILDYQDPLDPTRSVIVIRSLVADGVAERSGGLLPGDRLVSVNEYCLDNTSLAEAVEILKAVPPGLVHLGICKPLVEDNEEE

Binder | pKd
PEKVSNTTVV [IGSF5, Q9NSI5] | below the threshold
EAVTVESTSL [SLC22A11, Q9NSA0] | below the threshold

These binders were tested against Inadl_6, Q8NI35 (assay: holdup assay). Conditions: plain residues with an end cap or a label only (N-terminal biotin on a linker: ado-ado).
Set-up: key: below the threshold = too weak to quantify, mostly under pKd 3.1 to 4

Sequence of Inadl_6, Q8NI35 (Q8NI35 1058-1167): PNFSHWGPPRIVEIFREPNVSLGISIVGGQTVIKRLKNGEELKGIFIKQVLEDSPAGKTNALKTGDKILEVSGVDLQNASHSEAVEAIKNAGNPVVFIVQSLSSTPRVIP

Binder | pKd
PEKVSNTTVV [IGSF5, Q9NSI5] | below the threshold
EAVTVESTSL [SLC22A11, Q9NSA0] | 3.94

These binders were tested against MAGI2_3, Q86UL8 (assay: holdup assay). Conditions: plain residues with an end cap or a label only (N-terminal biotin on a linker: ado-ado).
Set-up: key: below the threshold = too weak to quantify, mostly under pKd 3.1 to 4

Sequence of MAGI2_3, Q86UL8 (Q86UL8 600-682): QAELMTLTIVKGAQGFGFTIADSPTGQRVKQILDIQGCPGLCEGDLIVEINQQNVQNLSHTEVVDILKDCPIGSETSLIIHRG

Binder | pKd
PEKVSNTTVV [IGSF5, Q9NSI5] | 3.51
EAVTVESTSL [SLC22A11, Q9NSA0] | below the threshold

The binders below were run against T9, NHERF3_3, Q5T2W1 (assay: holdup assay). Conditions: plain residues with an end cap or a label only (N-terminal biotin on a linker: ado-ado).
T9 sequence (Q5T2W1 238-333, limits assumed, looked up): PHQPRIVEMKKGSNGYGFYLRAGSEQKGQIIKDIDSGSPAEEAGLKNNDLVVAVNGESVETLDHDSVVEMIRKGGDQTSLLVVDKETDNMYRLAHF
Set-up: key: below the threshold = too weak to quantify, mostly under pKd 3.1 to 4

Binder | pKd
PEKVSNTTVV [IGSF5, Q9NSI5] | below the threshold
EAVTVESTSL [SLC22A11, Q9NSA0] | below the threshold

What follows are binders tested against T10, CARD11, Q9BXL7 (assay: holdup assay). Conditions: plain residues with an end cap or a label only (N-terminal biotin on a linker: ado-ado).
T10 sequence (Q9BXL7 662-765, limits assumed, looked up): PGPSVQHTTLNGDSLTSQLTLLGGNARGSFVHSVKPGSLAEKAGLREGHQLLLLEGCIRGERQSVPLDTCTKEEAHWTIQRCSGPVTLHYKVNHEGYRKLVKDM
Set-up: key: below the threshold = too weak to quantify, mostly under pKd 3.1 to 4

Binder | pKd
PEKVSNTTVV [IGSF5, Q9NSI5] | below the threshold
EAVTVESTSL [SLC22A11, Q9NSA0] | below the threshold
